Broadly, the Kd is the equilibrium constant for the complex coming apart. One may read the koff as the first-order rate constant of dissociation. As usually defined, the kon is the rate constant with which the complex forms.

Experiment [1] addresses human proBNP(1-108), recombinant protein produced in E. coli (HyTest), non-glycosylated (human) (UniProt P16860). The experiment is described as follows: sandwich ELISA, hinge 76 capture, HRP-mAb; proBNP(1-108) 5,000 pg/ml. In general terms: An ELISA detects its analyte on a solid surface through an enzyme-linked reagent.
Experiment [2] has as its target human BNP(1-32), synthetic peptide (Sigma-Aldrich #B-5900) (human). The experiment is described as follows: sandwich ELISA, L21016 capture; BNP(1-32) 20 pg/ml.
Experiment [3] has the same target. The experiment can be described thus: sandwich ELISA, L21016 capture; BNP(1-32) 2,500 pg/ml.
In experiment [4] the target is human proBNP(1-108), recombinant protein produced in E. coli (HyTest), non-glycosylated (human) (UniProt P16860). The experiment is described as follows: sandwich ELISA, hinge 76 capture, HRP-mAb; proBNP(1-108) 0 pg/ml (blank).
Experiment [5] has the same target. The experiment can be described thus: sandwich ELISA, hinge 76 capture, HRP-mAb; proBNP(1-108) 10,000 pg/ml.
For experiment [6], the target named is human BNP(1-32), synthetic peptide (Sigma-Aldrich #B-5900) (human). The experiment is described as follows: sandwich ELISA, L21016 capture; BNP(1-32) 5,000 pg/ml.
In experiment [7] the target is human proBNP(1-108), recombinant protein produced in E. coli (HyTest), non-glycosylated (human) (UniProt P16860). The experiment can be described thus: sandwich ELISA, hinge 76 capture, HRP-mAb; proBNP(1-108) 39 pg/ml.
Experiment [8] deals with human BNP(1-32), synthetic peptide (Sigma-Aldrich #B-5900) (human). The experiment can be described thus: sandwich ELISA, L21016 capture; BNP(1-32) 312.5 pg/ml.
Experiment [9] deals with human proBNP(1-108), recombinant protein produced in E. coli (HyTest), non-glycosylated (human) (UniProt P16860). The experiment can be described thus: sandwich ELISA, hinge 76 capture, HRP-mAb; proBNP(1-108) 1,250 pg/ml.
For experiment [10] the target is unchanged. The experiment is described as follows: sandwich ELISA, hinge 76 capture, HRP-mAb; proBNP(1-108) 625 pg/ml.
The target is the same in experiment [11]. The experiment is described as follows: sandwich ELISA, hinge 76 capture, HRP-mAb; proBNP(1-108) 312.5 pg/ml.
Experiment [12] has the same target. The experiment is described as follows: sandwich ELISA, hinge 76 capture, HRP-mAb; proBNP(1-108) 156.25 pg/ml.
In experiment [13] the target is human BNP(1-32), synthetic peptide (Sigma-Aldrich #B-5900) (human). The experiment is described as follows: sandwich ELISA, L21016 capture; BNP(1-32) 1,250 pg/ml.
The target in experiment [14] is human proBNP(1-108), recombinant protein produced in E. coli (HyTest), non-glycosylated (human) (UniProt P16860). The experiment can be described thus: sandwich ELISA, hinge 76 capture, HRP-mAb; proBNP(1-108) 78 pg/ml.
Experiment [15] shares this target. The experiment is described as follows: sandwich ELISA, hinge 76 capture, HRP-mAb; proBNP(1-108) 2,500 pg/ml.
In experiment [16] the target is human BNP(1-32), synthetic peptide (Sigma-Aldrich #B-5900) (human). The experiment is described as follows: sandwich ELISA, L21016 capture; BNP(1-32) 39 pg/ml.
The target is the same in experiment [17]. The experiment is described as follows: sandwich ELISA, L21016 capture; BNP(1-32) 0 pg/ml (blank).
Experiment [18] shares this target. The experiment can be described thus: sandwich ELISA, L21016 capture; BNP(1-32) 10,000 pg/ml.
The target is the same in experiment [19]. The experiment can be described thus: sandwich ELISA, L21016 capture; BNP(1-32) 625 pg/ml.
Experiment [20] shares this target. The experiment is described as follows: sandwich ELISA, L21016 capture; BNP(1-32) 156.25 pg/ml.
For experiment [21] the target is unchanged. The experiment can be described thus: sandwich ELISA, L21016 capture; BNP(1-32) 78 pg/ml.
Experiment [22] addresses human proBNP(1-108), recombinant protein produced in E. coli (HyTest), non-glycosylated (human) (UniProt P16860). The experiment can be described thus: sandwich ELISA, hinge 76 capture, HRP-mAb; proBNP(1-108) 20 pg/ml.
Experiment [23] has as its target human BNP(1-32), synthetic peptide (Sigma-Aldrich #B-5900) (human). The experiment is described as follows: sandwich ELISA, L21016 capture, BNP(1-32) 5 ng/ml; 50B7 0.5 µg/ml alone, no 20G7.
For experiment [24], the target named is human proBNP(1-108), recombinant protein produced in E. coli (HyTest), non-glycosylated (human) (UniProt P16860). The experiment can be described thus: SPR ProteOn XPR36, mAb captured by anti-Fc, soluble antigen 13-200 nM.
The target of experiment [25] is glycosylated human proBNP(1-108), recombinant protein from HEK293 cells (HyTest) (human) (UniProt P16860). The experiment is described as above.
Experiment [26] deals with 24C5 monoclonal antibody (HyTest). The experiment is described as follows: competition ELISA: BNP(1-32) immobilised at 0.5 µg/ml, 24C5 at 0.5 µg/ml mixed with the soluble peptide, anti-mouse IgG-peroxidase; % inhibition of the binding of 24C5 to BNP(1-32).

Chain of human BNP(1-32), synthetic peptide (Sigma-Aldrich #B-5900) (human) (peptide, as listed by the source): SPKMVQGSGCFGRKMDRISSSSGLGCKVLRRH
Chain of human proBNP(1-108), recombinant protein produced in E. coli (HyTest), non-glycosylated (human) (P16860 27-134): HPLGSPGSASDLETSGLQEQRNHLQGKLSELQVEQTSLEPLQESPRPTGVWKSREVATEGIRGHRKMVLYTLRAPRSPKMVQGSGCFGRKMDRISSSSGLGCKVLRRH
Chain of glycosylated human proBNP(1-108), recombinant protein from HEK293 cells (HyTest) (human) (P16860 27-134): as above

For 24C5 monoclonal antibody (HyTest), the OD in [1] was 0.117 OD; in experiment [4] it was 0.044 OD; in experiment [5] it was 0.22 OD; in experiment [7] it was 0.056 OD; in experiment [9], 0.068 OD; in experiment [10], 0.07 OD. The OD amounted to 0.035 OD in experiment [11]; 0.055 OD in experiment [12]; 0.056 OD in experiment [14]; 0.069 OD in experiment [15]; 0.052 OD in experiment [22]. For the same molecule, the OD 490 nm in experiment [2] was 0.068 OD; in [3], 0.067 OD; in experiment [6], 0.068 OD; in experiment [8], 0.063 OD; in [13] it was 0.056 OD; in experiment [16], 0.055 OD. For the same molecule, the OD 490 nm in experiment [17] amounted to 0.071 OD; in experiment [18] it was 0.077 OD; in experiment [19], 0.059 OD; in experiment [20], 0.071 OD; in experiment [21] it was 0.052 OD.

As to 26E2 monoclonal antibody (HyTest), the OD in experiment [1] was found to be 0.041 OD; in experiment [4], 0.024 OD; in [5], 0.158 OD; in experiment [7], 0.028 OD; in experiment [9], 0.024 OD; in experiment [10], 0.024 OD. Moreover, the OD in experiment [11] came out at 0.028 OD; in experiment [12], 0.027 OD; in experiment [14] it was 0.033 OD; in experiment [15], 0.031 OD; in experiment [22], 0.028 OD. Also, the OD 490 nm in [2] turned out to be 0.034 OD; in experiment [3], 0.035 OD; in [6], 0.041 OD; in [8] it was 0.027 OD; in [13], 0.031 OD; in [16] it was 0.032 OD. For the same molecule, the OD 490 nm in [17] stood at 0.022 OD; in [18], 0.048 OD; in experiment [19], 0.029 OD; in experiment [20], 0.032 OD; in experiment [21] it was 0.055 OD.

In experiment [23], 50B7 monoclonal antibody (HyTest) came in with an OD 490 nm of 1.3 OD.

Turning to hinge 76 monoclonal antibody (Bio-Rad), in [24], the Kd came out at 0.173 nM, the koff came to 0.000194 s⁻¹ and the kon amounted to 1.12e+06 M⁻¹ s⁻¹. In experiment [25], the equilibrium dissociation constant (Kd) was 23.5 nM, the dissociation rate constant (koff) is 0.00272 s⁻¹ and the association rate constant (kon) amounted to 117000 M⁻¹ s⁻¹.

B1: mutated epitope peptide A11GRKMDR17 (SEQ ID NO: 62) (peptide)
peptide: AGRKMDR
In experiment [26], B1 registered an IC50 (read off the curve) of 2 µg/mL.

The record behind these values is patent US20100209939A1.
